From patent US20130195871A1 (AbbVie / Abbott, published 2013) come the findings set out here.

A word on the Kd: it is the free concentration of one partner at which half of the binding sites on the other are occupied at equilibrium, for simple one-to-one binding. One may read the koff as a measure of how fast the partners let go of each other. The term kon denotes the second-order rate constant of association.

Experiment [1] has as its target T1, Recombinant Human MSP Receptor ECD-His tag (human, UniProt Q04912 25-957).
T1 construct: extracellular domain; bought reagent; also called RON
The experiment in a line: SPR (Biacore), C-terminal VD.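 Note: surface plasmon resonance with DVD-Ig proteins captured on an anti-IgG chip and recombinant antigen flowed over in HBS-EP buffer, Langmuir global fit, KD taken as koff/kon.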 For orientation: In SPR one partner is held on a chip, and binding of the other changes the refractive index at the surface.

Experiment [2] addresses T2, Recombinant Human ErbB3/FC Chimera-His tag (human, UniProt P21860 20-643).
T2 construct: bought reagent
The experiment in a line: SPR (Biacore), N-terminal VD.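 Note: capture of antibodies or DVD-Ig proteins on an anti-mouse IgG chip surface, recombinant antigen injected at 10–200 nM in HBS-EP running buffer at 25 °C.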
Experimental: (§1) The BIACORE assay (Biacore, Inc, Piscataway, N.J.) determined the affinity of antibodies or DVD-Ig proteins with kinetic measurements of on-rate and off-rate constants. Binding of antibodies or DVD-Ig proteins to a target antigen (for example, a purified recombinant target antigen) was determined by surface plasmon resonance-based measurements with a Biacore® 1000 or 3000 instrument (Biacore AB, Uppsala. Sweden) using running HBS-EP (10 mM HEPES [pH 7.4], 150 mM NaCl, 3 mM EDTA, and 0.005% surfactant P20) at 25° C. […] For example, approximately 5000 RU of goat anti-mouse IgG, (Fcγ), fragment specific polyclonal antibody (Pierce Biotechnology Inc, Rockford, Ill.) diluted in 10 mM sodium acetate (pH 4.5) was directly immobilized across a CM5 research grade biosensor chip using a standard amine coupling kit according to manufacturer's instructions and procedures at 25 μg/ml. Unreacted moieties on the biosensor surface were blocked with ethanolamine. Modified carboxymethyl dextran surface in flowcell 2 and 4 was used as a reaction surface. Unmodified carboxymethyl dextran without goat anti-mouse IgG in flow cell 1 and 3 was used as the reference surface. For kinetic analysis, rate equations derived from the 1:1 Langmuir binding model were fitted simultaneously to association and dissociation phases of all eight injections (using global fit analysis) with the use of Biaevaluation 4.0.1 software. Purified antibodies or DVD-Ig proteins were diluted in HEPES-buffered saline for capture across goat anti-mouse IgG specific reaction surfaces. Antibodies or DVD-Ig proteins to be captured as a ligand (25 μg/ml) were injected over reaction matrices at a flow rate of 5 μl/minute. The association and dissociation rate constants, kₒₙ (M⁻¹s⁻¹) and koff (s⁻¹) were determined under a continuous flow rate of 25 μl/minute. Rate constants were derived by making kinetic binding measurements at different antigen concentrations ranging from 10-200 nM. The equilibrium dissociation constant (M) of the reaction between antibodies or DVD-Ig proteins and the target antigen was then calculated from the kinetic rate constants by the following formula: KD=koff/kₒₙ. Binding was recorded as a function of time and kinetic rate constants were calculated.

A further experiment has as its target T3, EGFR on the cell surface (human, UniProt P00533 25-1210).
T3 construct: whole, on cells
As to the kind of experiment: flow cytometry on cells, 2 ug/mL, C-terminal VD.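 Note: cells stained for 30 to 60 min on ice.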 A general note: In flow cytometry, cells or beads pass a laser one at a time.

For a further experiment, the target named is T4, Recombinant Human IGF1R (human, UniProt P08069 31-932).
T4 construct: bought reagent
As to the kind of experiment: SPR (Biacore), N-terminal VD.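 Note: capture of antibodies or DVD-Ig proteins on an anti-mouse IgG chip surface, recombinant antigen injected at 10–200 nM in HBS-EP running buffer at 25 °C.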

Experimental for Recombinant Human IGF1R: as §1

B1: DVD2321 (bispecific antibody)
VH: EVQLLESGGGLVQPGGSLRLSCAASGFTFSHYVMAWVRQAPGKGLEWVSSISSSGGWTLYADSVKGRFTISRDNSKNTLYLQMNSLRAEDTAVYYCTRGLKMATIFDYWGQGTLVTVSSASTKGPEVQLVQSGGGLVKPGGSLRLSCAASGFTFSSYAMHWVRQAPGKGLEWVAVISYDGSNKYYADSVKGRFTISRDNSKNTLYLQMNSLRAEDTAVYYCARFSGWPNNYYYYGMDVWGQGTTVTVSS
VL: QSALTQPASVSGSPGQSITISCTGTSSDVGSYNVVSWYQQHPGKAPKLIIYEVSQRPSGVSNRFSGSKSGNTASLTISGLQTEDEADYYCCSYAGSSIFVIFGGGTKVTVLGQPKAAPDVVMTQSPLSLPVTPGEPASISCRSSQSLLHSNGFNYVDWYLQKPGQSPHLLIYFGSYRASGVPDRFSGSGSGTDFTLKISRVEAEDVGVYYCMQALQTPPWTFGQGTKVEIR
notes: DVD-Ig, outer AB116 / inner AB005
For the molecule B1, in experiment [1], the binding result is given as “no binding (tested: 10-200 nM)”. Further, in experiment [2], the Kd is 12 nM, the koff was determined as 0.00031 s⁻¹ and the kon turned out to be 25000 M⁻¹ s⁻¹.

B2: DVD2307 (bispecific antibody)
VH: EVQLVQSGGGLVKPGGSLRLSCAASGFTFSSFAMHWVRQAPGKGLEWISVIDTRGATYYADSVKGRFTISRDNAKNSLYLQMNSLRAEDTAVYYCARLGNFYYGMDVWGQGTTVTVSSASTKGPEVQLVESGGGLVQPGGSLRLSCAASGFSLTNYGVHWVRQAPGKGLEWLGVGWSGGNTDYNTPFTSRLTINKDNSKNTVYLQMNSLRAEDTAVYYCARALTWYDYEFAYWGQGTLVTVSS
VL: EIVLTQSPGTLSVSPGERATLSCRASQSIGSSLHWYQQKPGQAPRLLIKYASQSLSGIPDRFSGSGSGTDFTLTISRLEPEDFAVYYCHQSSRLPHTFGQGTKVEIKRTVAAPDILLTQSPGTLSLSPGERATLSCRASQSIYTNIHWYQQKPGQAPRLLIKYASESISGIPDRFSGSGSGTDFTLTISRLEPEDFAVYYCQQNLNWPTTFGQGTKLEIK
notes: DVD-Ig, outer AB077 / inner AB400
As for B2, the “GEO MEAN” value with EGFR on the cell surface came to 266.

B3: DVD2325 (bispecific antibody)
VH: EVQLVQSGGGLVKPGGSLRLSCAASGFTFSSFAMHWVRQAPGKGLEWISVIDTRGATYYADSVKGRFTISRDNAKNSLYLQMNSLRAEDTAVYYCARLGNFYYGMDVWGQGTTVTVSSASTKGPEVQLVQSGGGLVKPGGSLRLSCAASGFTFSSYAMHWVRQAPGKGLEWVAVISYDGSNKYYADSVKGRFTISRDNSKNTLYLQMNSLRAEDTAVYYCARFSGWPNNYYYYGMDVWGQGTTVTVSS
VL: EIVLTQSPGTLSVSPGERATLSCRASQSIGSSLHWYQQKPGQAPRLLIKYASQSLSGIPDRFSGSGSGTDFTLTISRLEPEDFAVYYCHQSSRLPHTFGQGTKVEIKRTVAAPDVVMTQSPLSLPVTPGEPASISCRSSQSLLHSNGFNYVDWYLQKPGQSPHLLIYFGSYRASGVPDRFSGSGSGTDFTLKISRVEAEDVGVYYCMQALQTPPWTFGQGTKVEIR
notes: DVD-Ig, outer AB077 / inner AB005
As for B3, the binding result in experiment [1] is reported as “no binding (tested: 10-200 nM)”. In the experiment with Recombinant Human IGF1R, the Kd came to 0.11 nM, the koff amounted to 6.6e-06 s⁻¹ and the kon came to 60000 M⁻¹ s⁻¹.

B4: DVD2327 (bispecific antibody)
VH: EVQLLESGGGLVQPGGSLRLSCTASGFTFSSYAMNWVRQAPGKGLEWVSAISGSGGTTFYADSVKGRFTISRDNSRTTLYLQMNSLRAEDTAVYYCAKDLGWSDSYYYYYGMDVWGQGTTVTVSSASTKGPEVQLVQSGGGLVKPGGSLRLSCAASGFTFSSYAMHWVRQAPGKGLEWVAVISYDGSNKYYADSVKGRFTISRDNSKNTLYLQMNSLRAEDTAVYYCARFSGWPNNYYYYGMDVWGQGTTVTVSS
VL: DIQMTQFPSSLSASVGDRVTITCRASQGIRNDLGWYQQKPGKAPKRLIYAASRLHRGVPSRFSGSGSGTEFTLTISSLQPEDFATYYCLQHNSYPCSFGQGTKLEIKRTVAAPDVVMTQSPLSLPVTPGEPASISCRSSQSLLHSNGFNYVDWYLQKPGQSPHLLIYFGSYRASGVPDRFSGSGSGTDFTLKISRVEAEDVGVYYCMQALQTPPWTFGQGTKVEIR
notes: DVD-Ig, outer AB011 / inner AB005
For B4, the binding result in experiment [1] is “no binding (tested: 10-200 nM)”. Also, in the experiment with Recombinant Human IGF1R, the Kd stood at 1.5 nM, the koff is 7e-05 s⁻¹ and the kon stood at 46000 M⁻¹ s⁻¹.

B5: DVD2319 (bispecific antibody)
VH: EVQLVESGGGLVQPGGSLRLSCAASGFTFSIYSMNWVRQAPGKGLEWVSYISSSSSTIYYADSVKGRFTISRDNAKNSLYLQMNSLRDEDTAVYYCARDRGDFDAFDIWGQGTMVTVSSASTKGPEVQLVQSGGGLVKPGGSLRLSCAASGFTFSSYAMHWVRQAPGKGLEWVAVISYDGSNKYYADSVKGRFTISRDNSKNTLYLQMNSLRAEDTAVYYCARFSGWPNNYYYYGMDVWGQGTTVTVSS
VL: DIQMTQSPSSLSASVGDRVTITCQASQDITNYLNWYQQKPGKAPKLLIYDASNLETGVPSRFSGSGSGTDFTFTISSLQPEDIATYNCQQCENFPITFGQGTRLEIKRTVAAPDVVMTQSPLSLPVTPGEPASISCRSSQSLLHSNGFNYVDWYLQKPGQSPHLLIYFGSYRASGVPDRFSGSGSGTDFTLKISRVEAEDVGVYYCMQALQTPPWTFGQGTKVEIR
notes: DVD-Ig, outer AB063 / inner AB005
For the molecule B5, the binding result in experiment [1] was “no binding (tested: 10-200 nM)”. Moreover, in experiment [2], the Kd amounted to 5.4 nM, the koff was determined as 0.0017 s⁻¹ and the kon amounted to 310000 M⁻¹ s⁻¹.

B6: DVD2338 (bispecific antibody)
VH: QVQLQESGPGLVKPSEILSLTCTVSGGSISSHYWSWVRQPPGKGLEWIGYIYYSGSTNYNPSLKSRVTISVDTSKNQFSLNLSSVTAADTAVYYCARIPNYYDRSGYYPGYWYFDLWGRGTLVTVSSASTKGPEVQLVESGGGLVQPGGSLRLSCAASGFSLTNYGVHWVRQAPGKGLEWLGVGWSGGNTDYNTPFTSRLTINKDNSKNTVYLQMNSLRAEDTAVYYCARALTWYDYEFAYWGQGTLVTVSS
VL: QAVLTQPSSLSAPPGASASLTCTLRSGFNVDSYRISWYQQKPGSPPQYLLRYKSDSDKQQGSGVPSRFSGSKDASANAGILLISGLQSEDEADYYCMIWHSSAWVFGGGTKLTVLRQPKAAPDILLTQSPGTLSLSPGERATLSCRASQSIYTNIHWYQQKPGQAPRLLIKYASESISGIPDRFSGSGSGTDFTLTISRLEPEDFAVYYCQQNLNWPTTFGQGTKLEIK
notes: DVD-Ig, outer AB034 / inner AB400
As for B6, the “GEO MEAN” value in the experiment with EGFR on the cell surface is 252.

B7: DVD2299 (bispecific antibody)
VH: EVQLVQSGGGLVKPGGSLRLSCAASGFTFSSYAMHWVRQAPGKGLEWVAVISYDGSNKYYADSVKGRFTISRDNSKNTLYLQMNSLRAEDTAVYYCARFSGWPNNYYYYGMDVWGQGTTVTVSSASTKGPEVQLVESGGGLVQPGGSLRLSCAASGFSLTNYGVHWVRQAPGKGLEWLGVGWSGGNTDYNTPFTSRLTINKDNSKNTVYLQMNSLRAEDTAVYYCARALTWYDYEFAYWGQGTLVTVSS
VL: DVVMTQSPLSLPVTPGEPASISCRSSQSLLHSNGFNYVDWYLQKPGQSPHLLIYFGSYRASGVPDRFSGSGSGTDFTLKISRVEAEDVGVYYCMQALQTPPWTFGQGTKVEIRRTVAAPDILLTQSPGTLSLSPGERATLSCRASQSIYTNIHWYQQKPGQAPRLLIKYASESISGIPDRFSGSGSGTDFTLTISRLEPEDFAVYYCQQNLNWPTTFGQGTKLEIK
notes: DVD-Ig, outer AB005 / inner AB400
B7: in the experiment with EGFR on the cell surface, the “GEO MEAN” value is 320.

B8: DVD2303 (bispecific antibody)
VH: EVQLVESGGGLVQPGGSLRLSCAASGFTFTDYTMDWVRQAPGKGLEWVADVNPNSGGSIYNQRFKGRFTLSVDRSKNTLYLQMNSLRAEDTAVYYCARNLGPSFYFDYWGQGTLVTVSSASTKGPEVQLVESGGGLVQPGGSLRLSCAASGFSLTNYGVHWVRQAPGKGLEWLGVGWSGGNTDYNTPFTSRLTINKDNSKNTVYLQMNSLRAEDTAVYYCARALTWYDYEFAYWGQGTLVTVSS
VL: DIQMTQSPSSLSASVGDRVTITCKASQDVSIGVAWYQQKPGKAPKLLIYSASYRYTGVPSRFSGSGSGTDFTLTISSLQPEDFATYYCQQYYIYPYTFGQGTKVEIKRTVAAPDILLTQSPGTLSLSPGERATLSCRASQSIYTNIHWYQQKPGQAPRLLIKYASESISGIPDRFSGSGSGTDFTLTISRLEPEDFAVYYCQQNLNWPTTFGQGTKLEIK
notes: DVD-Ig, outer AB080 / inner AB400
As to B8, the “GEO MEAN” value with EGFR on the cell surface amounted to 185.

B9: DVD2333 (bispecific antibody)
VH: EVQLLESGGGLVQPGGSLRLSCAASGFTFSHYVMAWVRQAPGKGLEWVSSISSSGGWTLYADSVKGRFTISRDNSKNTLYLQMNSLRAEDTAVYYCTRGLKMATIFDYWGQGTLVTVSSASTKGPQVQLQESGPGLVKPSEILSLTCTVSGGSISSHYWSWVRQPPGKGLEWIGYIYYSGSTNYNPSLKSRVTISVDTSKNQFSLNLSSVTAADTAVYYCARIPNYYDRSGYYPGYWYFDLWGRGTLVTVSS
VL: QSALTQPASVSGSPGQSITISCTGTSSDVGSYNVVSWYQQHPGKAPKLIIYEVSQRPSGVSNRFSGSKSGNTASLTISGLQTEDEADYYCCSYAGSSIFVIFGGGTKVTVLGQPKAAPQAVLTQPSSLSAPPGASASLTCTLRSGFNVDSYRISWYQQKPGSPPQYLLRYKSDSDKQQGSGVPSRFSGSKDASANAGILLISGLQSEDEADYYCMIWHSSAWVFGGGTKLTVL
notes: DVD-Ig, outer AB116 / inner AB034
With B9, the binding result in experiment [1] and in experiment [2] was “no binding (tested: 10-200 nM)” in each case.

B10: DVD2323 (bispecific antibody)
VH: QVQLQQWGAGLLKPSETLSLTCAVYGGSFSGYYWSWIRQPPGKGLEWIGEINHSGSTNYNPSLKSRVTISVETSKNQFSLKLSSVTAADTAVYYCARDKWTWYFDLWGRGTLVTVSSASTKGPEVQLVQSGGGLVKPGGSLRLSCAASGFTFSSYAMHWVRQAPGKGLEWVAVISYDGSNKYYADSVKGRFTISRDNSKNTLYLQMNSLRAEDTAVYYCARFSGWPNNYYYYGMDVWGQGTTVTVSS
VL: DIEMTQSPDSLAVSLGERATINCRSSQSVLYSSSNRNYLAWYQQNPGQPPKLLIYWASTRESGVPDRFSGSGSGTDFTLTISSLQAEDVAVYYCQQYYSTPRTFGQGTKVEIKRTVAAPDVVMTQSPLSLPVTPGEPASISCRSSQSLLHSNGFNYVDWYLQKPGQSPHLLIYFGSYRASGVPDRFSGSGSGTDFTLKISRVEAEDVGVYYCMQALQTPPWTFGQGTKVEIR
notes: DVD-Ig, outer AB062 / inner AB005
Regarding B10, the binding result in experiment [1] is given as “no binding (tested: 10-200 nM)”. Also, in experiment [2], the Kd is 7.7 nM, the koff is 0.00046 s⁻¹ and the kon is 60000 M⁻¹ s⁻¹.
